The values that follow come from publication PMC3696110, “Hsp70 Oligomerization Is Mediated by an Interaction between the Interdomain Linker and the Substrate-Binding Domain” (PLoS ONE, 2013).

Values joined by “and” are separate entries in the source; they are usually repeats but may differ in a detail not shown here. Equal values may be shown once.

In one series the target is T1, FL-Hsp70 (Homo sapiens, UniProt P0DMV8).
T1 construct: 35% of full-length Hsp70 (FL-Hsp70) exists as oligomeric species; hexa-His (N, cleaved yes); made in house; host or cells: E. coli BL21 (DE3) Gold, pET-28b
Kind of series: Fluorescence titration of dansyl-NR peptide binding. Conditions: 2 µM dansyl-NR peptide, fluorescence ex 330 nm; 50 mM Tris pH 7.4, 150 mM KCl, 5 mM MgCl2; 1 h at 25°C; single-site fit; average of two samples; read-out: Kd (apparent dissociation constant). As for the experimental part:
(§1) The interaction between the different Hsp70 variants and the NR peptide was studied in 50 mM Tris buffer at pH 7.4, with 150 mM KCl, and 5 mM MgCl2 using fluorescence spectroscopy by titrating different concentrations of chaperone into a solution containing 2 µM dansyl-NR peptide (N-terminally labeled; Genemed Synthesis Inc., San Antonio, TX, USA) after incubating the mixtures for 1 h at 25°C. The concentration of dansyl-NR peptide was calculated using an extinction coefficient at 327 nm of 4300 M^-1.cm^-1 [39]. The fluorescence emission spectrum of each sample was recorded from 400 to 630 nm after excitation at 330 nm, and the data reported correspond to the average intensity at the maximum emission wavelength of two different samples for which ten spectra were recorded. The increase in fluorescence signal was plotted as a function of chaperone concentration (Figure S2), and analyzed assuming single-site binding using the following equation:
(§2) ΔF=ΔFmaxΘL=ΔFmax/2LT[(PT+LT+Kd)−(PT+LT+Kd)^2−4PTLT] (1)
(§3) where ΘL is the fraction of bound ligand, ΔF is the increase in fluorescence intensity observed at a given concentration of Hsp70 variant, ΔF max is the increase in fluorescence at saturation, L T and P T are the total ligand and protein concentration respectively, and K d is the apparent dissociation constant of the complex. The fraction of bound ligand was plotted as a function of protein concentration in order to compare affinities between the different chaperone variants.

Another series addresses T2, SBD641 (Homo sapiens, UniProt P0DMV8).
T2 construct: SBD641 (384-641), corresponding to the full-length SBD; hexa-His (N, cleaved yes); made in house; host or cells: E. coli BL21 (DE3) Gold, pET-28b
Described as above. Conditions: 2 µM dansyl-NR peptide, fluorescence ex 330 nm; 50 mM Tris pH 7.4, 150 mM KCl, 5 mM MgCl2; 1 h at 25°C; single-site fit; average of two samples; read-out: Kd (apparent dissociation constant). The method, then:
as §1, §2, §3

In another series the target is T3, ΔLSBD641 (Homo sapiens, UniProt P0DMV8).
T3 construct: ΔLSBD641 (394-641), corresponding to SBD641 without the first ten residues of the interdomain linker; hexa-His (N, cleaved yes); made in house; host or cells: E. coli BL21 (DE3) Gold, pET-28b
The series is described as above. Particulars: 2 µM dansyl-NR peptide, fluorescence ex 330 nm; 50 mM Tris pH 7.4, 150 mM KCl, 5 mM MgCl2; 1 h at 25°C; single-site fit; average of two samples; read-out: Kd (apparent dissociation constant). The method, then:
as §1, §2, §3

In another series the target is T4, SBD556 (Homo sapiens, UniProt P0DMV8, L542Y).
T4 construct: SBD556 (384-556), which lacks helices C, D and E and the C-terminal disordered region; hexa-His (N, cleaved yes); made in house; host or cells: E. coli BL21 (DE3) Gold, pET-28b
The description is as above. As for the experimental part:
as §1, §2, §3

Series [1] is described as follows: Secondary structure content from far-UV CD. Type of series: physicochemical, human. Conditions: K2D software; 20 µM protein, 7 mM Tris pH 7.4, 170 mM KCl, 5 mM MgCl2; 25 °C. The method, then:
Far-UV CD spectra for all protein variants were recorded using a Jasco J-810 spectropolarimeter equipped with a Peltier holder, using a 0.1 cm path length cuvette. Typically, samples contained 20 µM protein in 7 mM Tris buffer at pH 7.4, containing 170 mM KCl and 5 mM MgCl2. The far-UV CD spectra of all the variants in their native, thermally denatured and refolded states were recorded from 198 to 250 nm, and the spectrum of the buffer was systematically subtracted from the spectra of all protein samples. The secondary structure content was estimated from the far-UV CD spectrum for each protein variant using K2D software.

Series [2] in a line: Thermal denaturation monitored by far-UV CD. Type of series: physicochemical, human. As for the experimental part:
Protein structural stability was analyzed by monitoring the CD signal at 222 nm upon thermal denaturation. Thermal runs were performed from 5 to 90 °C at a rate of 1 °C. min^-1. Data points were acquired every 0.1 °C with a response time of 2 s and a bandwidth of […]. After thermal denaturation, each protein sample was cooled to the starting temperature, and a second denaturation curve recorded in order to analyse the degree of reversibility of the denaturation process. Analysis of the thermal unfolding curves was performed assuming a three-state unfolding model.

Series [3] is described as follows: nESI-MS relative populations of oligomeric forms. In kind it is physicochemical, human. Particulars: 6-15 µM protein, 150 mM ammonium acetate, pH 7.4, estimated error 5% (SD of 3-4 independent experiments). As for the experimental part: Prior to MS analysis, samples were buffer exchanged into 150 mM ammonium acetate, pH 7.4, using Micro Bio-spin 6 columns (Bio-Rad, Digilab Division, Cambridge, MA, USA). For all the experiments protein concentrations ranging from 6 to 18 µM were used. In the case of the substrate binding experiments, proteins were analyzed in the presence of a 1: 1 molar ratio of the NR peptide; this substrate concentration, lower than in the SEC experiments, was chosen to ensure adequate resolution of the various charge state series, which is critical for unambiguous assignment of substrate-bound states. Due to suppression effects during nESI ionization, a relatively limited set of molar ratios could be investigated by in this way.
nESI-MS spectra were obtained according to a previously published protocol on an orthogonal time-of-flight mass spectrometer with a Z-spray source (LCT, Waters, Manchester, UK) in positive ion mode using the following parameters: capillary voltage, 1500 V; sample cone voltage, 120 V (unless otherwise specified); extraction cone voltage, 1V; and ion transfer stage pressure, 8.8 mbar. Spectra were calibrated externally using a 33 mg/ml solution of cesium iodide. Data were acquired and processed with MassLynx software (Waters, Manchester, UK), and are shown with minimal smoothing and without background subtraction. The relative abundances of the different oligomeric states were estimated from the intensities of the most abundant charge states for each construct and are expressed as a percentage of the total intensity.

The nature of series [4]: SEC/DLS of oligomeric species. Type of series: physicochemical, human. Particulars: SEC, ΔLSBD641 at the same protein concentration, no NR peptide. The method, then:
Analytical SEC was performed at 4 °C using a Superdex 75 10/300 GL column (GE Healthcare LifeSciences, Little Chalfont, U.K.), which had previously been calibrated using a mixture of standard proteins (Gel Filtration LMW Calibration Kit; GE Healthcare LifeSciences, Little Chalfont, U.K.). Typically, samples of the various constructs contained 70 µM of protein in 50 mM Tris buffer at pH 7.4, with 150 mM KCl, 5 mM MgCl2 and were incubated for 15 min (unless otherwise specified) at room temperature before being loaded onto the column for analysis. To evaluate the reversibility of the oligomerization process, the different elution peaks obtained for each protein variant were subsequently analyzed after concentrating the different fractions using AmiconUltra-0.5, Ultracel-3 Membrane, 3 kDa (Millipore, Bedford, MA, USA). […]
Dynamic light scattering. Representative size distributions of SBD641 at different protein concentrations in Tris 50 mM, pH 7.4, 150 mM KCl, 5 mM MgCl2 were recorded at 25 °C on the Zetasizer Nano ZS instrument (Malvern Instruments Ltd.) at 633 nm after 1 h of incubation at room temperature. […] Some samples were analyzed after 1 h and 4 h incubation at room temperature and the same intensity size distributions were obtained. The samples were centrifuged for 15 min at 13200 rpm to remove dust particles and the scattered light was detected at an angle of 173°. […]

The nature of series [5]: Analytical SEC relative populations of oligomeric forms. Type of series: physicochemical, human. Particulars: Superdex 75, 4 °C, 50 mM Tris pH 7.4, 150 mM KCl. The method, then: Analytical SEC was performed at 4 °C using a Superdex 75 10/300 GL column (GE Healthcare LifeSciences, Little Chalfont, U.K.), which had previously been calibrated using a mixture of standard proteins (Gel Filtration LMW Calibration Kit; GE Healthcare LifeSciences, Little Chalfont, U.K.). Typically, samples of the various constructs contained 70 µM of protein in 50 mM Tris buffer at pH 7.4, with 150 mM KCl, 5 mM MgCl2 and were incubated for 15 min (unless otherwise specified) at room temperature before being loaded onto the column for analysis. To evaluate the reversibility of the oligomerization process, the different elution peaks obtained for each protein variant were subsequently analyzed after concentrating the different fractions using AmiconUltra-0.5, Ultracel-3 Membrane, 3 kDa (Millipore, Bedford, MA, USA). A similar analysis was also performed at 6 µM concentration for all the protein variants to allow for a direct comparison between the results obtained by SEC and MS experiments.
The influence of substrate binding on the oligomerization properties of all the variants was examined by using the well-characterized Hsp70 substrate, the NR peptide (NRLLLTG, Genemed Synthesis Inc., San Antonio, TX, USA). A 14-fold excess of the peptide was added in each case to a fresh protein sample, incubated for 1 h at room temperature, unless otherwise specified, and then loaded onto the Superdex 75 10/300 GL column for analysis. The relative quantities of the different protein species were estimated by analysing the chromatographic profile using a Gaussian function for each elution peak (OriginPro 8, Originlab, Northampton, MA, USA) and measuring the relative area under each peak.

For series [6] the following is noted: previously reported; ref [S3]; cited from earlier work. As for the experimental part:
Supplementary file pone.0067961.s005.tif: Figure S4 Concentration dependency of the analytical SEC chromatograms of the 'C-term' variant. The protein concentrations used were 1µM (black line), 2µM (orange line), 5 µM (pink line), 10 µM (cyan line), 70 µM (red line) and 125 µM (green line). Essentially the same elution profile was found for all the protein concentrations used. At the top the chromatogram the previously reported Stokes radii of the standard proteins used to calibrate the column are reported: conalbumin (40.4 Å), ovalbumin (30.5 Å), carbonic anhydrase (23.6 Å) [S3], ribonuclease ...

[7] abbreviates: 70 µM protein, 5 mM MgCl2, 15 min at room temperature, estimated error 3.5% (SD of 3-4 independent experiments).
[8] abbreviates: 6-15 µM protein, 5 mM MgCl2, estimated error 3.5% (SD of 3-4 independent experiments).

T1 sequence (P0DMV8 whole entry): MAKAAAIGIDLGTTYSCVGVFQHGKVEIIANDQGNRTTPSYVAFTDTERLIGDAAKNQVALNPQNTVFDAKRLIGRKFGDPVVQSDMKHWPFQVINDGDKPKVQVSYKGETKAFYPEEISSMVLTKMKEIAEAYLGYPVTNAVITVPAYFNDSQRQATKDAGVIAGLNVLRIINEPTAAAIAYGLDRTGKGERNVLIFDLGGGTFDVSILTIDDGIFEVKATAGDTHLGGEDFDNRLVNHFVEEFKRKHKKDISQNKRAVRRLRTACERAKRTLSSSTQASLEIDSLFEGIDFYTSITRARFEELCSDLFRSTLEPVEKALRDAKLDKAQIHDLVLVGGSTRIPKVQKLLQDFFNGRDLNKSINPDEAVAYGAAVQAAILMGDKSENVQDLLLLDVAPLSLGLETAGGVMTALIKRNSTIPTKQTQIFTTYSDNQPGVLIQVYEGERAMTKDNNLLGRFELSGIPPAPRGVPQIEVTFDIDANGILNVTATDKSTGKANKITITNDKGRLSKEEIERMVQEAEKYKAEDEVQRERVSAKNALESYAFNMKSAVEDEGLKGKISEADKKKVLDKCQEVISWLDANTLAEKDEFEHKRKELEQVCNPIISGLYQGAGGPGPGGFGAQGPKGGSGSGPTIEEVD
T4 sequence (P0DMV8 384-556 L542Y): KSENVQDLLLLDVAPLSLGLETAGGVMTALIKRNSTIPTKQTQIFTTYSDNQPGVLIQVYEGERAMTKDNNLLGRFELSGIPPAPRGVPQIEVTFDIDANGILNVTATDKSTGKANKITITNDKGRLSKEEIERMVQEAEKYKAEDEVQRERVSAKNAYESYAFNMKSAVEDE
T2 sequence (P0DMV8 384-641): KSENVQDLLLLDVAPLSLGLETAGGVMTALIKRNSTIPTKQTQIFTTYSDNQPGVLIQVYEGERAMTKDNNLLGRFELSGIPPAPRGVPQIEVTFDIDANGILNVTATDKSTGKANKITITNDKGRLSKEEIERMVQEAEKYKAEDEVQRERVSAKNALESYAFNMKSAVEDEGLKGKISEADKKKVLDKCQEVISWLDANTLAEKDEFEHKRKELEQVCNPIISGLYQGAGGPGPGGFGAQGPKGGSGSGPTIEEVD
T3 sequence (P0DMV8 395-641, stated change not applied): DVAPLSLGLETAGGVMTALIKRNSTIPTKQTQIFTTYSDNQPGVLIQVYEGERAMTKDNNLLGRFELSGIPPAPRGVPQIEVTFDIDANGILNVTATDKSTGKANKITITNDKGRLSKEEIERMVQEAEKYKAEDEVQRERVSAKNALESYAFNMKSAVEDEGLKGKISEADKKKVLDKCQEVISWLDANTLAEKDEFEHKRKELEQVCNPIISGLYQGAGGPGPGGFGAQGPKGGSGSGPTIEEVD

`CC(C)C[C@H](NC(=O)[C@H](CC(C)C)NC(=O)[C@H](CCCNC(=N)N)NC(=O)[C@@H](N)CC(N)=O)C(=O)N[C@@H](CC(C)C)C(=O)N[C@H](C(=O)NCC(=O)O)[C@@H](C)O` [NR peptide, NRLLLTG]: the Kd was 9 µM and 8 to 10 µM at FL-Hsp70; 11 µM and 1 to 10 µM at SBD641; 8 ± 2 µM at ΔLSBD641; 53 ± 16 µM at SBD556 (2 µM dansyl-NR peptide, fluorescence ex 330 nm, 50 mM Tris pH 7.4, 150 mM KCl, 5 mM MgCl2, 1 h at 25°C, single-site fit, average of two samples, read-out: Kd (apparent dissociation constant)). Further, the “Reduction of fluorescence intensity at saturation (Fmax)” value at SBD556 (fluorescence titration, SBD556 vs other chaperone variants) is listed as about 25%.
As to “ΔLSBD641: SBD641 without the first ten residues of the interdomain linker (SENVQDLLLL), residues 394-641”, in series [1], the “Random-coil content estimated from far-UV CD” value was 47%, the “α-helix content estimated from far-UV CD” value is 35% and the “β-sheet content estimated from far-UV CD” value is reported as 18%. Moreover, the “∆Hm, 1st transition” value in series [2] (CD 222 nm, 20 µM protein, 7 mM Tris pH 7.4, 170 mM KCl, 5 mM MgCl2, three-state fit (C-term two-state), SE of fit) amounted to 45.6 ± 2.4 kcal/mol. Besides, in [2] (CD 222 nm, 20 µM protein, 7 mM Tris pH 7.4, 170 mM KCl, 5 mM MgCl2, three-state fit, SE of fit), the “∆Hm, 2nd transition” value was 61.0 ± 1.1 kcal/mol. For the same compound, in [2] (CD 222 nm, 5 to 90 °C at 1 °C/min, 20 µM protein, 7 mM Tris pH 7.4, 170 mM KCl, 5 mM MgCl2, three-state fit (C-term two-state), SE of fit), the “Tm, 1st transition” value amounted to 44.9 ± 0.3 °C. Also, the “Tm, 2nd transition” value in [2] (CD 222 nm, 5 to 90 °C at 1 °C/min, 20 µM protein, 7 mM Tris pH 7.4, 170 mM KCl, 5 mM MgCl2, three-state fit, SE of fit) came to 72.3 ± 0.1 °C. For the same compound, the “Degree of irreversibility of overall protein thermal denaturation” value in [2] (far-UV CD) was “exactly the same behaviour”. Also, in series [3], the Dimer population is 8%, the Monomer population was over 90%, the Total oligomer population is recorded as 8% and the Trimer population was 0%. For the same compound, the Monomer population in [3] (listed as ∆LSBD641) is 92%. The Oligomer fraction entry in [4] is “ca. 0.1”. Moreover, in series [5] (setting [7]), the Dimer population is reported as 14%, the Monomer population was 86% and the Total oligomer population was 14%. In series [5] (setting [8]), the Dimer population is on record as 9%, the Monomer population was over 90% and the Total oligomer population is 9%. In addition, the Monomer population in [5] (6-15 µM protein, 5 mM MgCl2, estimated error 3.5% (SD of 3-4 independent experiments), listed as ∆LSBD641) is 91%.
With carbonic anhydrase [reference compound], the “Stokes radius of SEC standard protein” value in series [6] was 23.6 Å.
